What was measured:
[1] = biological target: CXC chemokine receptor 4 (CXCR4) on THP-1 cells (UniProt P61073); assay: cell-based or functional assay
wild-type CXCL12-α [2] = biological target: wild-type CXCL12-α (UniProt P48061); assay: method not given; reference is unsulfated p38
wild-type CXCL12-α [3] = biological target: wild-type CXCL12-α (UniProt P48061); assay: apparent Kd; method not given

CXC chemokine receptor 4 (CXCR4) on THP-1 cells, sequence (P61073 whole entry): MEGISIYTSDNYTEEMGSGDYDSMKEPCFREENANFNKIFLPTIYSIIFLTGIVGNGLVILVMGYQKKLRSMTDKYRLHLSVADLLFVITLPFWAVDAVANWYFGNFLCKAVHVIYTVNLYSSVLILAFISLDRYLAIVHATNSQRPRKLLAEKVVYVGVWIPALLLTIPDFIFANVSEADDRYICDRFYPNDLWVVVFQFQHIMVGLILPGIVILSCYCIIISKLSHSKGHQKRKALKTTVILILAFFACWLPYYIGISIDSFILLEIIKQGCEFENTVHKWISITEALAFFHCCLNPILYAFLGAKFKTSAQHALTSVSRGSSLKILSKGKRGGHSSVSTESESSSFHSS

Substance	EC50 (nM), CXCR4 activation, Ca2+-flux in THP-1 cells [1] [nM]	Fold Increase of EC50 over wild-type CXCL12-α [1] [fold]	fold tighter binding than the unsulfated peptide (p38) (wild-type CXCL12-α [2]) [fold]	Kd (wild-type CXCL12-α [3]) [nM]
CXCL12-α E60A (from UniProt P48061 22-93) (ligand)	4.1	1.1	–	–
CXCL12-α H25R (from UniProt P48061 22-93) (ligand)	5.1	1.4	–	–
CXCL12-α K64A (from UniProt P48061 22-93) (ligand)	5	1.4	–	–
CXCL12-α R41A (from UniProt P48061 22-93) (ligand)	4.3	1.2	–	–
CXCL12-α R47A (from UniProt P48061 22-93) (ligand)	14.1	3.9	–	–
CXCL12-α V49A (from UniProt P48061 22-93) (ligand)	8.6	2.4	–	–

Next, values leading:

EC50 (nM), CXCR4 activation, Ca2+-flux in THP-1 cells [1] [nM]	Fold Increase of EC50 over wild-type CXCL12-α [1] [fold]	fold tighter binding than the unsulfated peptide (p38) (wild-type CXCL12-α [2]) [fold]	Kd (wild-type CXCL12-α [3]) [nM]	Substance
3.7	1	–	–	CXCL12-α E63A (from UniProt P48061 22-93) (ligand)
10.1	2.8	–	–	CXCL12-α K27A (from UniProt P48061 22-93) (ligand)
16.8	4.7	–	–	CXCL12-α K27E (from UniProt P48061 22-93) (ligand)
4.3	1.2	–	–	CXCL12-α R20A (from UniProt P48061 22-93) (ligand)
654	182	–	–	CXCL12-α R47E (from UniProt P48061 22-93) (ligand)
27.1	7.5	–	–	CXCL12-α V39A (from UniProt P48061 22-93) (ligand)
–	–	20	200	p38-sY3 (CXCR4 N-terminal peptide p38 with sulfotyrosine at positions 7, 12 and 21)
